Assay results as given in the supplement of paper PMC10567573.

B1: ATL3 (parent)
chain: EKALASILLQDHIRDLDVVVVSVA
B2: PI4K2A (parent)
chain: FVKDPQGRIIAVFKPKNEEPYGHL

Variants of: B1
Test: protein stability index of a GFP-peptide fusion (GPS, HEK-293T) (PSI 1-6); higher = more stable
Conditions: c terminus: a fixed tail appended
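Also: lentivirally expressed fusions sorted by FACS into six bins by GFP to DsRed ratio, PSI derived from sequencing read proportions per bin multiplied by bin number.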

Protein stability index, by site and new letter:
L9: M 2.46 | P 1.61 | H 2.71 | E 3.11 | K 3.25
A5: Q 3.29 | T 2.26 | K 1.74 | E 2.29 | N 3.63 | W 2.08 | H 1.35 | V 2.9
I7: A 2.62 | D 2.51 | N 1.31 | L 1.97 | Y 2.15 | P 3.2 | K 2.32 | S 2.85 | H 2.31 | T 2.13 | E 2.37 | R 2.08
D11: G 3.66 | P 3.03 | E 3.13 | K 3.25
A3: Y 1.09 | E 1.51
E1: I 2.5 | C 3.34 | R 2.24 | N 2.93 | G 3.59 | H 2.05
L8: G 2.62 | W 3.89 | E 1.98 | I 2.89 | T 1.55 | N 1.04 | K 1.14 | Q 2.63 | A 2.99 | P 2.34
Q10: N 2.98 | S 2.87 | Y 3.47
S6: P 1.93 | K 2.18 | L 3.06
K2: R 1.3 | D 2.78 | Y 2.98
L4: D 2.61 | A 1.45 | V 3.38 | Q 1.69 | H 1.05 | E 1.39 | Y 1.83 | K 3.04 | P 1.25 | T 1.37 | C 1.47
H12: I 3.19 | P 2.97 | G 4.08 | L 2.48 | E 2.17

Variants of: B2
Test: as above
Conditions: c terminus: a fixed tail appended

Protein stability index: each site, then its substitutions
E18: Q 1.8 | N 1.48 | D 2.16 | A 2.39 | S 2.2 | G 3.17 | M 2.08 | C 2.02 | V 2.23 | I 2.22 | H 1.62 | Y 2.98 | F 1.96 | R 2.1 | P 1.79 | K 2.04 | T 1.35 | L 3.88
L24: I 1.92 | D 2.03 | E 1.04 | T 2.22 | F 1.53 | A 2.27 | W 1.74 | C 2.24 | H 1.76 | P 2.33 | M 1.92 | Y 1.41 | N 1.63 | V 2.19 | S 2.1 | R 1.42 | K 2.04 | G 1.48 | Q 2.03
I10: Y 2.28
Y21: K 2.04 | N 1.5 | I 2.91 | L 2.85 | R 2.11 | A 1.57 | M 1.54 | F 2.21 | G 1.65 | T 1.74 | H 2.59 | W 2.26 | D 1.85 | Q 2.53 | E 1.44 | S 1.72 | V 1.65 | P 2.17 | C 2
P15: I 2.13 | T 1.27 | H 1.58 | V 1.92 | M 2.1 | K 2.45 | R 2.84 | F 1.77 | S 1.96 | G 2.5 | L 2.26 | Y 2.4 | D 1.9 | A 2.18 | C 1.66 | W 1.08 | Q 2.07 | E 2.37 | N 2.26
A11: D 2.94 | Y 1.32 | V 1.63 | F 2.49 | P 3.18 | R 3.16 | C 1.27 | E 2.07 | M 2.01 | Q 3.56 | L 1.61 | W 2.88 | I 1.37 | H 1.41 | G 2.72 | K 2.58
V12: T 2.54 | L 2.07 | K 1.38 | W 1.45 | P 2.46 | Q 2.5 | G 2.44 | S 2.72 | M 2 | A 3.17 | Y 1.93 | F 2.84 | I 1.85 | D 1.56 | E 1.74 | H 2.9 | R 1.96 | C 2.04
E19: M 1.81 | S 1.71 | C 2.52 | Y 1.73 | I 2.62 | P 1.78 | F 1.52 | V 1.73 | G 1.67 | H 2.1 | D 2.16 | N 1.91 | Q 2.03 | K 2.58 | W 2.91 | T 2.09 | L 2.34 | A 1.58 | R 1.34
H23: E 1.62 | V 2.28 | Q 1.56 | K 1.61 | W 1.83 | N 1.99 | Y 1.78 | G 2.6 | D 2.39 | S 1.36 | P 2.47 | L 2.41 | M 1.87 | I 2.38 | R 1.79 | F 1.27 | T 1.81 | C 1.94 | A 1.65
K16: G 1.46 | N 1.68 | Q 2.23 | T 1.42 | L 1.66 | P 1.7 | I 2.31 | R 1.77 | H 1.97 | W 2.23 | F 2.44 | M 1.98 | S 1.48 | C 1.63 | Y 2.44 | E 2.3 | V 2.79 | D 2.22 | A 1.91
K14: Y 2.23 | G 2.46 | E 2.09 | P 2.07 | I 1.97 | L 2.08 | A 2.09 | Q 2.2 | D 2.49 | W 1.78 | R 1.18 | N 1.13 | V 1.47 | M 3.22 | T 2.17 | S 3.13 | H 2.03 | F 2.67 | C 2.56
G22: N 1.73 | H 1.88 | P 2.63 | I 1.74 | Q 2.09 | L 2.03 | C 1.93 | F 1.81 | E 2.02 | D 1.74 | S 2.65 | Y 1.48 | W 1.72 | T 1.41 | K 2.44 | M 2.1 | A 1.66 | V 1.55 | R 2.37
P20: L 1.55 | I 1.76 | S 2 | V 1.16 | C 1.78 | N 1.94 | R 1.7 | M 2.65 | W 2.05 | H 1.74 | Q 1.7 | E 1.75 | Y 1.91 | G 2.05 | T 2.01 | K 1.2 | D 2.05 | A 2.94 | F 1.94
N17: F 1.57 | W 2.41 | I 1.63 | L 2.35 | E 2.33 | D 1.84 | M 1.9 | V 1.66 | H 2.38 | Q 1.97 | K 1.73 | P 2 | G 1.48 | A 2.52 | R 1.3 | Y 1.68 | S 1.64 | C 2.31 | T 1.92
F13: S 1.38 | A 1.55 | M 1.28 | E 2.05 | L 1.96 | Y 2.18 | G 1.39 | H 2.24 | W 2.13 | Q 2.13 | N 1.99 | V 1.92 | D 1.43 | K 1.58 | C 2.48 | P 2.3 | I 2.5 | R 1.93 | T 1.94
